The target of this assay is CFP-SelM′ (human) (UniProt Q8WWX9). Description: FRET or BRET; acceptor photobleaching FRET in living HeLa cells cotransfected with CFP (donor) and YFP (receptor) plasmids; region of interest bleached at 515 nm for 20 s; laser confocal microscope. For orientation: BRET reads energy transfer from a luciferase to a nearby fluorophore.
UniProt Q8WWX9, sequence (Q8WWX9 28-145): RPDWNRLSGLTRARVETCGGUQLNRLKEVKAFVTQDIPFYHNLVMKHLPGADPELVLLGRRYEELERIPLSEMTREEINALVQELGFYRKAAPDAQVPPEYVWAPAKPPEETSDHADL

As for “YFP-Gal-1 (from UniProt P09382 1-135) (natural protein)”, the FRET efficiency came out at 27.3%; the distance between donor and receptor (FRET) turned out to be 6.35 nm.
